Assays:
[1] = target: FCEH-bound IgE (human IgE held on FcεRI) (human, UniProt P01854 1-546; P12319 26-257); assay: cell-based or functional assay
[2] = target: T1, membrane IgE on U266 B1 cells (human, UniProt P01854 1-546); assay: FACS on U266 B1 cells (membrane IgE+)
T1 construct: whole, on cells; also called Membrane IgE on U266BL; mIgE
Procedure: c. […] Cells are added to 400 μl FACS buffer containing propidium iodide at 2 μg/ml to stain dead cells.

human IgE (U266 IgE) [3] = target: T2, human IgE (U266 IgE) (human, UniProt P01854 1-546); assay: ratio of 50% inhibition concentrations
T2 construct: mature; Purified from U266B1 cells or recombinant from 293 cells; the Scatchard assay used iodinated IgE of ND and PS allotypes; P01854 covers the constant region only; also called huIgE; U266 IgE standard
T2 sequence (P01854 whole entry): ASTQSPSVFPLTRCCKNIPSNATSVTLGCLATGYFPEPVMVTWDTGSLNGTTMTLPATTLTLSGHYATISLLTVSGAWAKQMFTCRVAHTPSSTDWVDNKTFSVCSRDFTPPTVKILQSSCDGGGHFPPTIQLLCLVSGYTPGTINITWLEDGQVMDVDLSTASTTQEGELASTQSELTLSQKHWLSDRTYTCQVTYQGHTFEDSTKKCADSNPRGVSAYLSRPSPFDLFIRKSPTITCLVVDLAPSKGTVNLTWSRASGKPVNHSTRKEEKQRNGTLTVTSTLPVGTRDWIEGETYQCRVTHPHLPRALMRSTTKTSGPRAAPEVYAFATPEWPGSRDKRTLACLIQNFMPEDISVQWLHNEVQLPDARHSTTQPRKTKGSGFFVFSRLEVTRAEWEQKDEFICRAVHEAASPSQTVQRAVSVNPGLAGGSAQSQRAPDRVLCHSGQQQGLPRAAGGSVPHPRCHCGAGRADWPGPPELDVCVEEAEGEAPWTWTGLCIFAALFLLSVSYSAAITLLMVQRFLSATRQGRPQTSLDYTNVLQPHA
Procedure: (§1) A 96-well assay plate (Manufn Nunc.) was coated with 0.05 ml of the FcεRI alpha chain IgG1 chimeric receptor in 1 μg/ml coating buffer ([…] carbonate/bicarbonate, pH 9.6). Assay was done for 12 hours at 4-8° C. The wells were aspirated and 250 μl blocking buffer (PBS—1% BSA pH 7.2) was added and incubated for one hour at 4° C. […] The FcεRI-coated wells were washed three times with PBS-0.05% Tween20, and then 50 μl from the sample wells were transferred and incubated with agitation for 30 minutes at 25° C. 50 μl/well of streptavidin-HRP diluted 1:5000 in assay buffer was incubated for 15 minutes with agitation and then the plate was washed as before. 50 μl/well of Microwell peroxidase substrate (Kirkgaard & Parry Laboratories) was added and color was developed for 30 minutes. The reaction was stopped by adding an equal volume of 1 normal HCl and the adsorbance measured at 450 nm.

human IgE (U266 IgE) [4] = target: T2, human IgE (U266 IgE); assay: 50% inhibition of IgE binding to FCEH (assay taken as that of Table 9)
Procedure: as §1

Sequence of FCEH-bound IgE (human IgE held on FcεRI) (P01854 whole entry, chain 1 of 2): as the sequence (P01854 whole entry) above
Sequence of FCEH-bound IgE (human IgE held on FcεRI) (P12319 26-257, chain 2 of 2): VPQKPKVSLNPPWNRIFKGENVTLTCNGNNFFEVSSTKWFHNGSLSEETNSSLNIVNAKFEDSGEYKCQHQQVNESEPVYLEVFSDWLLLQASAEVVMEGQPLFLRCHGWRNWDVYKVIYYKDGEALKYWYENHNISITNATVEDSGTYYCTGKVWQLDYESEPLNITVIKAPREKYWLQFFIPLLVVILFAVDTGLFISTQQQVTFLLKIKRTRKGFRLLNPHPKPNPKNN
T1 sequence (P01854 whole entry): as the sequence (P01854 whole entry) above

Row | PBL Histamine Release (EC50) [1] | EC50 [2] | Var. X / IgL1H1 (human IgE (U266 IgE) [3]) | Var. X / MaE11 (human IgE (U266 IgE) [3]) | IC50 (human IgE (U266 IgE) [4]) | Binder
1 | > 10 µg/mL | 1 µg/mL | – | – | – | MaE 13 murine anti-human IgE monoclonal antibody (antibody, murine IgG1; may hold only the variable regions) heavy: DVQLQESGPGLVKPSQSLSLTCTVTGYTITSDNAWNWIRQFPGNKLEWMGYINHSGTTSYNPSLKSRISITRDTSKNQFFLQLNSVTTEDTATYYCAWVVAYAMDYWGQGTSVTVSSAKTTPPSVYPLAR light: DIVMTQSQKFMSTSVGDRVSVTCKASQNVSSNVAWYQQKPGQSPKALIYSASYRYSGVPDRFTGSGSGTDFTLTISNVQSEDLAEYFCQQYYTYPLYTFGGGTKLEIKRADAAPTVSIFPPSTR
2 | > 100 µg/mL | 0.15 µg/mL | 0.06 ratio | 1 ratio | 0.449 µg/mL | MaE 11 murine anti-human IgE monoclonal antibody (antibody, murine IgG1; they may hold only the variable regions) heavy: DVQLQESGPGLVKPSQSLSLACSVTGYSITSGYSWNWIRQFPGNKLEWMGSITYDGSSNYNPSLKNRISVTRDTSQNQFFLKLNSATAEDTATYYCARGSHYFGHWHFAVWGAGTTVTVSSAKTTPPSVYPLAR light: DIVLTQSPASLAVSLGQRATISCKASQSVDYDGDSYMNWYQQKPGQPPILLIYAASYLGSEIPARFSGSGSGTDFTLNIHPVEEEDAATFYCQQSHEDPYTFGAGTKLEIK
